Test results: patent publication US20130137748A1 (ONCOTHERAPY SCIENCE, published 2013)

Experiments:
beta-catenin = target: T1, beta-catenin
T1 chain: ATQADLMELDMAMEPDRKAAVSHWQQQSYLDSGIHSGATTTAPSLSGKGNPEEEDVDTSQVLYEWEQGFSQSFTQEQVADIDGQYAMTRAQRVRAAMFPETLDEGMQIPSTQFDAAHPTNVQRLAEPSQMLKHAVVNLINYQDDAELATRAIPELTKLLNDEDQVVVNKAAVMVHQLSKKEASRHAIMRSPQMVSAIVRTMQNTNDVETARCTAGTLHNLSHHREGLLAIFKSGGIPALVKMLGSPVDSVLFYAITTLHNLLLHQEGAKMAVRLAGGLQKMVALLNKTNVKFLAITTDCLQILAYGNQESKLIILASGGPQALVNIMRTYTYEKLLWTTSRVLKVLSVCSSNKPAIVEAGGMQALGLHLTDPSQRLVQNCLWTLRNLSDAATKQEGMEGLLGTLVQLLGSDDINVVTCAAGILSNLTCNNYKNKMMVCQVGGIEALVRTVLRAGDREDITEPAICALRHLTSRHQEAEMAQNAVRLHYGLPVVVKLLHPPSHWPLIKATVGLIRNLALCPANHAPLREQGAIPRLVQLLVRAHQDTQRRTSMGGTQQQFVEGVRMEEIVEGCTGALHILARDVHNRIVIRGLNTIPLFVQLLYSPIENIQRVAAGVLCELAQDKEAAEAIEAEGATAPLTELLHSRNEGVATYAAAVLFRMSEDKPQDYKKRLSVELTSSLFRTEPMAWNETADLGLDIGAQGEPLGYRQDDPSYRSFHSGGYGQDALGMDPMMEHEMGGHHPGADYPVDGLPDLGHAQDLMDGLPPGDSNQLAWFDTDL

[1] = target: T2, 3×FLAG-WHSC1 (Wolf-Hirschhorn syndrome candidate-1, FLAG-tagged) (human, UniProt O96028 1-1365); test: anti-HA immunoprecipitation from nuclear and cytoplasmic fractions of 293T cells co-transfected with HA-beta-catenin and 3×FLAG-WHSC1, then immunoblot
T2 construct: Expressed in 293T cells by transfection; also called FLAG-tagged WHSC1; pCAGGS-n3FH-WHSC1; not shown: 3×FLAG tag from the pCAGGS-n3FH / n3FC vector
T2 sequence: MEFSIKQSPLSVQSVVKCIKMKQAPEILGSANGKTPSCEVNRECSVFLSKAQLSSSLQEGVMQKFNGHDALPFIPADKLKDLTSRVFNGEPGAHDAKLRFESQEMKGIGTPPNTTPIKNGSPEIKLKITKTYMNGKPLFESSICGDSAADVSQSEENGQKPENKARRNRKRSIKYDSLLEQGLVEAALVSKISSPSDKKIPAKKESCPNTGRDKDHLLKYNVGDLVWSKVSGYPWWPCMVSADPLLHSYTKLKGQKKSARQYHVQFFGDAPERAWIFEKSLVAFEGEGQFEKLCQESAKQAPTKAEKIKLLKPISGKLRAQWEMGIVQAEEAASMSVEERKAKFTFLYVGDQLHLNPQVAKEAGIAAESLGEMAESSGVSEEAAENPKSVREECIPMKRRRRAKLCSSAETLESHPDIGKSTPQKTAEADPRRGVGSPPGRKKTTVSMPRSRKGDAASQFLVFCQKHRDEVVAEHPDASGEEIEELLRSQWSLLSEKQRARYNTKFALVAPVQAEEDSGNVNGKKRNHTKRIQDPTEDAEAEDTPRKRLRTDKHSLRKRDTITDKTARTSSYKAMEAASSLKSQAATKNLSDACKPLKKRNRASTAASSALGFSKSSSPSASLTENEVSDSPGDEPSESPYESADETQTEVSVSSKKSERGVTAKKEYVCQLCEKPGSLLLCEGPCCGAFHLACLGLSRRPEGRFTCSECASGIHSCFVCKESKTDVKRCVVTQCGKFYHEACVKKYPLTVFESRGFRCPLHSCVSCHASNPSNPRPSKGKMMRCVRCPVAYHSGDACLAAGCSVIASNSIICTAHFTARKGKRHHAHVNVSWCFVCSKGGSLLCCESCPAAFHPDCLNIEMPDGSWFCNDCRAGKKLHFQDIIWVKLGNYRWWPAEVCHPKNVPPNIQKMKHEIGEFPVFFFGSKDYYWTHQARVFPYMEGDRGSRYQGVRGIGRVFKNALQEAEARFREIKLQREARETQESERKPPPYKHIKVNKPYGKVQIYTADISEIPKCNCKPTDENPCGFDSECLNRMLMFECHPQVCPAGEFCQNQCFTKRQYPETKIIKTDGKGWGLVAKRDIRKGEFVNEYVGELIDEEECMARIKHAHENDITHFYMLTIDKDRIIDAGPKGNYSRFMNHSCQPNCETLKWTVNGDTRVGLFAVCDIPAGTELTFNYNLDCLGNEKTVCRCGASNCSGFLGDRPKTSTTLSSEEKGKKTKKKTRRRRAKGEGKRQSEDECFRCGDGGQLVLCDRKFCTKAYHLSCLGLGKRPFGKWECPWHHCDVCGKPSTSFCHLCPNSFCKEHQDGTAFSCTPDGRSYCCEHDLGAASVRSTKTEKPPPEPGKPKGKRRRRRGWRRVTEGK
Procedure: [FIG. 5B-D](B) Silver staining pattern of interacting proteins with WHSC1. pCAGGS-n3FH-WHSC1 vectors were transfected into 293T cells. After 48 h, interacting protein partners of WHSC1 were enriched by anti-FLAG immunoprecipitation, separated by SDS-PAGE and silver stained. The different bands compared with a control lane were cut out and identified by mass spectrometry. Western blot was performed to confirm the expression of FLAG-WHSC1 using anti-FLAG antibody. (C) Immunoprecipitants from lysates of 293T cells using anti-FLAG M2 agarose (SIGMA) were immunoblotted with anti-FLAG (WHSC1), IQGAP1, TIAM1, AKT2 and beta-catenin antibodies. (D). HA-beta-catenin and 3×FLAG-WHSC1 vectores were transfected into 293T cells, and cell lysates were fractionated by NE-PER nuclear and cytoplasmic ex-traction kit (Thermo Sciecntific). Immunoprecipitants from fractionated lysates using anti-HA agarose (SIGMA) were immunoblotted with anti-FLAG and HA antibodies. UHRF1 was used as a marker of a nuclear protein, and Rho A was used a marker of a cytoplasmic protein.

| Binder | in vitro methyltransferase assay (beta-catenin) | binding result [1] |
| --- | --- | --- |
| WHSC1 (expressed from the pCAGGS-WHSC1 vector) (protein) MEFSIKQSPLSVQSVVKCIKMKQAPEILGSANGKTPSCEVNRECSVFLSKAQLSSSLQEGVMQKFNGHDALPFIPADKLKDLTSRVFNGEPGAHDAKLRFESQEMKGIGTPPNTTPIKNGSPEIKLKITKTYMNGKPLFESSICGDSAADVSQSEENGQKPENKARRNRKRSIKYDSLLEQGLVEAALVSKISSPSDKKIPAKKESCPNTGRDKDHLLKYNVGDLVWSKVSGYPWWPCMVSADPLLHSYTKLKGQKKSARQYHVQFFGDAPERAWIFEKSLVAFEGEGQFEKLCQESAKQAPTKAEKIKLLKPISGKLRAQWEMGIVQAEEAASMSVEERKAKFTFLYVGDQLHLNPQVAKEAGIAAESLGEMAESSGVSEEAAENPKSVREECIPMKRRRRAKLCSSAETLESHPDIGKSTPQKTAEADPRRGVGSPPGRKKTTVSMPRSRKGDAASQFLVFCQKHRDEVVAEHPDASGEEIEELLRSQWSLLSEKQRARYNTKFALVAPVQAEEDSGNVNGKKRNHTKRIQDPTEDAEAEDTPRKRLRTDKHSLRKRDTITDKTARTSSYKAMEAASSLKSQAATKNLSDACKPLKKRNRASTAASSALGFSKSSSPSASLTENEVSDSPGDEPSESPYESADETQTEVSVSSKKSERGVTAKKEYVCQLCEKPGSLLLCEGPCCGAFHLACLGLSRRPEGRFTCSECASGIHSCFVCKESKTDVKRCVVTQCGKFYHEACVKKYPLTVFESRGFRCPLHSCVSCHASNPSNPRPSKGKMMRCVRCPVAYHSGDACLAAGCSVIASNSIICTAHFTARKGKRHHAHVNVSWCFVCSKGGSLLCCESCPAAFHPDCLNIEMPDGSWFCNDCRAGKKLHFQDIIWVKLGNYRWWPAEVCHPKNVPPNIQKMKHEIGEFPVFFFGSKDYYWTHQARVFPYMEGDRGSRYQGVRGIGRVFKNALQEAEARFREIKLQREARETQESERKPPPYKHIKVNKPYGKVQIYTADISEIPKCNCKPTDENPCGFDSECLNRMLMFECHPQVCPAGEFCQNQCFTKRQYPETKIIKTDGKGWGLVAKRDIRKGEFVNEYVGELIDEEECMARIKHAHENDITHFYMLTIDKDRIIDAGPKGNYSRFMNHSCQPNCETLKWTVNGDTRVGLFAVCDIPAGTELTFNYNLDCLGNEKTVCRCGASNCSGFLGDRPKTSTTLSSEEKGKKTKKKTRRRRAKGEGKRQSEDECFRCGDGGQLVLCDRKFCTKAYHLSCLGLGKRPFGKWECPWHHCDVCGKPSTSFCHLCPNSFCKEHQDGTAFSCTPDGRSYCCEHDLGAASVRSTKTEKPPPEPGKPKGKRRRRRGWRRVTEGK | no positive signals were observed (data not shown) | – |
| HA-beta-catenin (other, Co-transfected with 3×FLAG-WHSC1 into 293T cells and precipitated with anti-HA agarose from nuclear and cytoplasmic fractions; also called HA-tagged beta-catenin; not shown: HA tag) MATQADLMELDMAMEPDRKAAVSHWQQQSYLDSGIHSGATTTAPSLSGKGNPEEEDVDTSQVLYEWEQGFSQSFTQEQVADIDGQYAMTRAQRVRAAMFPETLDEGMQIPSTQFDAAHPTNVQRLAEPSQMLKHAVVNLINYQDDAELATRAIPELTKLLNDEDQVVVNKAAVMVHQLSKKEASRHAIMRSPQMVSAIVRTMQNTNDVETARCTAGTLHNLSHHREGLLAIFKSGGIPALVKMLGSPVDSVLFYAITTLHNLLLHQEGAKMAVRLAGGLQKMVALLNKTNVKFLAITTDCLQILAYGNQESKLIILASGGPQALVNIMRTYTYEKLLWTTSRVLKVLSVCSSNKPAIVEAGGMQALGLHLTDPSQRLVQNCLWTLRNLSDAATKQEGMEGLLGTLVQLLGSDDINVVTCAAGILSNLTCNNYKNKMMVCQVGGIEALVRTVLRAGDREDITEPAICALRHLTSRHQEAEMAQNAVRLHYGLPVVVKLLHPPSHWPLIKATVGLIRNLALCPANHAPLREQGAIPRLVQLLVRAHQDTQRRTSMGGTQQQFVEGVRMEEIVEGCTGALHILARDVHNRIVIRGLNTIPLFVQLLYSPIENIQRVAAGVLCELAQDKEAAEAIEAEGATAPLTELLHSRNEGVATYAAAVLFRMSEDKPQDYKKRLSVELTSSLFRTEPMAWNETADLGLDIGAQGEPLGYRQDDPSYRSFHSGGYGQDALGMDPMMEHEMGGHHPGADYPVDGLPDLGHAQDLMDGLPPGDSNQLAWFDTDL | – | binds |
